Data taken from paper PMC8155012, “Architecture of the Sema3A/PlexinA4/Neuropilin tripartite complex” (Nature Communications, 2021).
Where a chain is given by its changes, count along the chain named. In names and notes the source's numbering stands.

T1: FLAG-tagged PlexinA4 extracellular region (mouse, UniProt Q80UG2 33-1226)
T1 construct: mouse PlexinA4 residues 33–1226, extracellular region; FLAG inserted immediately after the signal peptide; also called PlexinA4-WT; source: Expi293F, purified from medium (Ni-NTA, Superose 6); not shown: FLAG, N-terminal, kept
T1 sequence (looked up): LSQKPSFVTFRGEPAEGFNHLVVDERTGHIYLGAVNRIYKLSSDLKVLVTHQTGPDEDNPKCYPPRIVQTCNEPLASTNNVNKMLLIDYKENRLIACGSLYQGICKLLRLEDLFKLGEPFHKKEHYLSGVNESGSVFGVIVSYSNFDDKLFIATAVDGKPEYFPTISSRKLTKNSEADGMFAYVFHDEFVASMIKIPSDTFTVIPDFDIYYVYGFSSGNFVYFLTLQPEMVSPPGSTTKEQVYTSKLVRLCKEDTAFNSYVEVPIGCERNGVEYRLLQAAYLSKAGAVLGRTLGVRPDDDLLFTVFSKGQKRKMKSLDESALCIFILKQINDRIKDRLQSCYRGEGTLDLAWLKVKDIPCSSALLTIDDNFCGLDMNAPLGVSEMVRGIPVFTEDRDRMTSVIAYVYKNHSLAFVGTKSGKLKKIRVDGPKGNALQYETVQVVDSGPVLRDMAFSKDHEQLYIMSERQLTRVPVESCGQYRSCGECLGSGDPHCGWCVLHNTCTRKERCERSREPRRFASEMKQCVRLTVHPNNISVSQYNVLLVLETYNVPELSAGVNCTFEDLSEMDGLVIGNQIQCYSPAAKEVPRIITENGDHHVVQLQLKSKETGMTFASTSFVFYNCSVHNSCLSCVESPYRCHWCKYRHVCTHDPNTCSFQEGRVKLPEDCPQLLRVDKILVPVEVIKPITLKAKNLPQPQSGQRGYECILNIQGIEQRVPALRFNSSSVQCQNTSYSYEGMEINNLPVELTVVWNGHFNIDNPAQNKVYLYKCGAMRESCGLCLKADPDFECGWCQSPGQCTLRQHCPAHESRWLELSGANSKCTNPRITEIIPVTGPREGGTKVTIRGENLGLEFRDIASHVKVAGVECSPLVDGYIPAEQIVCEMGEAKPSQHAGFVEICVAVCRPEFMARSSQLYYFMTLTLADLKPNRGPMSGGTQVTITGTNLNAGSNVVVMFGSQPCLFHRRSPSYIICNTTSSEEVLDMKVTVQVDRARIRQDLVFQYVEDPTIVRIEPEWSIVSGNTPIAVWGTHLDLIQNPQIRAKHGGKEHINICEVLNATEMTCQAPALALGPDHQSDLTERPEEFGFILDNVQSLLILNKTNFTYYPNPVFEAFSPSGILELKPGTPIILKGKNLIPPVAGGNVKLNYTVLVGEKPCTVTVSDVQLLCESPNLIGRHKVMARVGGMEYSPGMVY

T2: FLAG-tagged PlexinA4 extracellular region K343E (mouse, UniProt Q80UG2 33-1226, K343E)
T2 construct: mouse PlexinA4 residues 33–1226, extracellular region, K343E; also called PlexinA4-K343E; source: Expi293F, purified from medium (Ni-NTA, Superose 6); not shown: FLAG, N-terminal, kept
T2 sequence (looked up): T1 sequence (looked up) with K311E

B1: Sema3A (21–770) (ligand, mouse, UniProt O08665 21-770, looked up)
chain: NYANGKNNVPRLKLSYKEMLESNNVITFNGLANSSSYHTFLLDEERSRLYVGAKDHIFSFNLVNIKDFQKIVWPVSYTRRDECKWAGKDILKECANFIKVLEAYNQTHLYACGTGAFHPICTYIEVGHHPEDNIFKLQDSHFENGRGKSPYDPKLLTASLLIDGELYSGTAADFMGRDFAIFRTLGHHHPIRTEQHDSRWLNDPRFISAHLIPESDNPEDDKVYFFFRENAIDGEHSGKATHARIGQICKNDFGGHRSLVNKWTTFLKARLICSVPGPNGIDTHFDELQDVFLMNSKDPKNPIVYGVFTTSSNIFKGSAVCMYSMSDVRRVFLGPYAHRDGPNYQWVPYQGRVPYPRPGTCPSKTFGGFDSTKDLPDDVITFARSHPAMYNPVFPINNRPIMIKTDVNYQFTQIVVDRVDAEDGQYDVMFIGTDVGTVLKVVSVPKETWHDLEEILLEEMTVFREPTTISAMELSTKQQQLYIGSTAGVAQLPLHRCDIYGKACAECCLARDPYCAWDGSSCSRYFPTAKARTRAQDIRNGDPLTHCSDLQHHDNHHGPSLEERIIYGVENSSTFLECSPKSQRALVYWQFQRRNEDRKEEIRMGDHIIRTEQGLLLRSLQKKDSGNYLCHAVEHGFMQTLLKVTLEVIDTEHLEELLHKDDDGDGSKIKEMSSSMTPSQKVWYRDFMQLINHPNLNTMDEFCEQVWKRDAAQAAQRPGHSQGSSNKWKHMQESKKGANRATHEFERAPR
notes: mouse Sema3A residues 21–770, ending at Arg770; internal furin sites mutated; without the A106K mutation; PDB 7M0R holds the A106K form; also called Sema3A-WT; wild-type Sema3A; source: Expi293F, purified from medium (Ni-NTA, Superose 6)
B2: Sema3A (21–770) K497E (ligand, mouse, UniProt O08665 21-770, looked up)
chain: B1 chain with K477E
notes: mouse Sema3A residues 21–770 with K497E; internal furin sites mutated; without A106K; also called Sema3A-K497E; Seme3A-K497E; source: Expi293F, purified from medium (Ni-NTA, Superose 6)
B3: Sema3A (21–770) F386A (ligand, mouse, UniProt O08665 21-770, looked up)
chain: B1 chain with F366A
notes: mouse Sema3A residues 21–770 with F386A; internal furin sites mutated; without A106K; also called F386A mutation of Sema3A; source: Expi293F, purified from medium (Ni-NTA, Superose 6)
B4: Nrp1-a1a2b1b2 (receptor, mouse, UniProt P97333 22-588, looked up)
chain: FRSDKCGGTIKIENPGYLTSPGYPHSYHPSEKCEWLIQAPEPYQRIMINFNPHFDLEDRDCKYDYVEVIDGENEGGRLWGKFCGKIAPSPVVSSGPFLFIKFVSDYETHGAGFSIRYEIFKRGPECSQNYTAPTGVIKSPGFPEKYPNSLECTYIIFAPKMSEIILEFESFDLEQDSNPPGGMFCRYDRLEIWDGFPEVGPHIGRYCGQKTPGRIRSSSGVLSMVFYTDSAIAKEGFSANYSVLQSSISEDFKCMEALGMESGEIHSDQITASSQYGTNWSVERSRLNYPENGWTPGEDSYKEWIQVDLGLLRFVTAVGTQGAISKETKKKYYVKTYRVDISSNGEDWISLKEGNKAIIFQGNTNPTDVVLGVFSKPLITRFVRIKPVSWETGISMRFEVYGCKITDYPCSGMLGMVSGLISDSQITASNQADRNWMPENIRLVTSRTGWALPPSPHPYTNEWLQVDLGDEKIVRGVIIQGGKHRENKVFMRKFKIAYSNNGSDWKTIMDDSKRKAKSFEGNNNYDTPELRTFSPLSTRFIRIYPERATHSGLGLRMELLGCEVEAP
notes: mouse Neuropilin 1 residues 22–588, domains a1, a2, b1 and b2; also called MAM-domain truncated version of Nrp1; Nrp1-WT; source: Expi293F, transfected alone or co-expressed with Sema3A and PlexinA4, purified from medium (Ni-NTA, Superose 6)
B5: Nrp1-a1a2b1b2 E128R (receptor, mouse, UniProt P97333 22-588, looked up)
chain: B4 chain with E107R
notes: mouse Neuropilin 1 residues 22–588 (a1a2b1b2) with E128R; also called Nrp1-E128R; source: Expi293F, purified from medium (Ni-NTA, Superose 6)
B6: Nrp1-a1a2b1b2 H74A (receptor, mouse, UniProt P97333 22-588, looked up)
chain: B4 chain with H53A
notes: mouse Neuropilin 1 residues 22–588 (a1a2b1b2) with H74A; also called H74A mutation of Nrp1; source: Expi293F, purified from medium (Ni-NTA, Superose 6)
B7: Nrp1-a1a2b1b2 S251E (receptor, mouse, UniProt P97333 22-588, looked up)
chain: B4 chain with S230E
notes: mouse Neuropilin 1 residues 22–588 (a1a2b1b2) with S251E; also called Nrp1-S251E; source: Expi293F, purified from medium (Ni-NTA, Superose 6)
B8: Nrp1-a1a2b1b2 A252E (receptor, mouse, UniProt P97333 22-588, looked up)
chain: B4 chain with A231E
notes: mouse Neuropilin 1 residues 22–588 (a1a2b1b2) with A252E; also called Nrp1-A252E; A252E mutant; source: Expi293F, purified from medium (Ni-NTA, Superose 6)

The binders below were run against T1, FLAG-tagged PlexinA4 extracellular … (assay: pull-down; FLAG-tagged PlexinA4 (20 µg) on anti-FLAG antibody resin; Nrp1 and Sema3A, 30 µg each, added together; 20 mM HEPES (pH 7.5), 150 mM NaCl, 1 mM CaCl2, 4 °C, 1 h; SDS-PAGE, Coomassie blue). Details: both partners purified.

Binding result, binds:
B1
B2
B3
B4
B5
B6
B7
B8

Each binder was assayed against T2, FLAG-tagged PlexinA4 extracellular … in the same assay as above. Details: both partners purified.

Binding result, binds:
B1
B4
